From patent publication US20250277030A1, “ANTI-NAPI2B ANTIBODIES AND METHODS OF USE” (Zymeworks BC Inc., priority 2022, published 2025)

Columns and labels:
[1] = target: T1, NaPi2b expressed on IGROV-1 cells (Homo sapiens, UniProt O95436); assay: Cellular binding to IGROV-1 cells by flow cytometry (Example 19); conditions: NB = no binding (apparent Kd >150 nM)
T1 construct: IGROV-1 cells express endogenous NaPi2b at a high level; endogenous in cells; host or cells: IGROV-1
T1 sequence (O95436 1-690): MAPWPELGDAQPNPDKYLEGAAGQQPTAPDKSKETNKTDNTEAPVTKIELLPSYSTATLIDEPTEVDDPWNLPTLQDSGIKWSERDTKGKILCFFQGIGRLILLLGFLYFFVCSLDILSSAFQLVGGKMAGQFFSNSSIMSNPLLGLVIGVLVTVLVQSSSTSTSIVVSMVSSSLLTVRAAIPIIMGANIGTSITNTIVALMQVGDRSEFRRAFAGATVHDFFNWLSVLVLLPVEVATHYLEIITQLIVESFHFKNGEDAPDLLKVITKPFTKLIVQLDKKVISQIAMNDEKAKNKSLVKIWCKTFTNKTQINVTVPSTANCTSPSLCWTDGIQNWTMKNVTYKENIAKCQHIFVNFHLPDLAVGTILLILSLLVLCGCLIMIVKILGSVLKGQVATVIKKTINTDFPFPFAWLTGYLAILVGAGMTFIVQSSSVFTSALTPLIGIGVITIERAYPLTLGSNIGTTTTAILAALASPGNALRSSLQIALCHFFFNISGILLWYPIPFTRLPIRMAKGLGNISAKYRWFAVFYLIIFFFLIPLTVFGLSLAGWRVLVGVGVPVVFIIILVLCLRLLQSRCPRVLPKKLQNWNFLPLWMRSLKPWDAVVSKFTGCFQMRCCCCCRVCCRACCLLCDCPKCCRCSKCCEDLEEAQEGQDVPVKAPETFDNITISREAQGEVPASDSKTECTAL
Experimental: Briefly, cells were seeded at 50,000 cells/well in conical-bottom 96-well plates and treated with test antibody for 24 hours at 4° C. to prevent internalization. Palivizumab (anti-RSV antibody, v22277) was included as a negative control. […] Following incubation, cells were washed and stained with anti-Human IgG Fc AF647 conjugate (Jackson Immuno Research Labs, West Grove, PA; Cat. No. 109-605-098) at 4° C. for 30 min. Following incubation and washing, fluorescence was detected by flow cytometry on a BD LSRFortessa™ Cell Analyzer (BD Biosciences, Franklin Lake, NJ) with 1,000 minimum events collected per well. The AF647/APC-A GeoMean (fluorescence signal geometric mean, proportional to anti-Human AF647 binding) was calculated for the live cell population using FlowJo™ Version 10.8.1 (BD Biosciences, Franklin Lake, NJ) and plotted for each test antibody using GraphPad Prism Version 9 (GraphPad Software, San Diego, CA).
The ability of the humanized antibody variants v38591 and v29456 to bind to NaPi2b expressed on cells was assessed on endogenous NaPi2b-expressing tumor cell lines IGROV-1 (ovarian adenocarcinoma) and TOV-21G (ovarian carcinoma) by flow cytometry. IGROV-1 and TOV-21G cells express endogenous NaPi2b at high and moderate levels, respectively, as described in Example 10.
Cellular binding was performed according to methods described in Example 13.

[2] = NS-ELISA non-specific binding, heparin; conditions: mAb at 100 nM
Experimental: (§1) The isoelectric point was measured by capillary isoelectric focusing (cIEF), the propensity for self-aggregation was measured by Affinity-capture self-interaction nanoparticle spectroscopy (AC-SINS) and non-specific binding was measured by NS-ELISA, as described below.
(§2) NS-ELISA was used to measure the propensity of the antibodies to bind to a range of biomolecules to emulate the undesirable non-specific interactions to biological matrices in vivo as described below.
(§3) NS-ELISA was carried out in Corning®96-well EIA/RIA Easy Wash™ Clear Flat Bottom Polystyrene High Bind Microplate coated overnight at 4° C. with 50 μL of Heparin (Sigma, H3149) diluted with 50 mM sodium carbonate pH 9.6 to a final concentration of 250 μg/mL. The plate was incubated for 2 days at room temperature, wells that were coated with heparin were not covered to allow air dry. […] Reactions were stopped after approximately 10 minutes by adding 100 μL of 1 M HCl to each well, and absorbance was read at 450 nm. Binding scores were calculated as the ratio of the ELISA signal of the antibody (antibody-treated) to the signal of a well containing buffer instead of the primary antibody (untreated). The cutoffs considered for each binding molecule (ssDNA, KLH, insulin, dsDNA and heparin) were internally calculated, based on the average of Zymeworks Inc. produced antibodies and antibodies benchmarks published in the literature.

Insulin = target: T2, Insulin (Homo sapiens, UniProt P01308); assay: NS-ELISA non-specific binding, insulin; conditions: mAb at 100 nM
T2 construct: purchased Sigma-Aldrich 19278
T2 sequence (P01308 25-54 limits assumed): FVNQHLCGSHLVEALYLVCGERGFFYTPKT
T2 sequence (P01308 90-110 limits assumed): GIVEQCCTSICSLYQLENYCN
Experimental: as §1, §2, §3

B1: v29456: humanized anti-NaPi2b IgG1/kappa antibody H1L2; VH SEQ ID NO:24, VL SEQ ID NO:29 (antibody, V domains shown)
VH: QVQLVQSGAEVKKPGASVKVSCKASGFTFTSYNVHWVRQAPGQGLEWMGAISPGNGDLSYAQKFQGRVTMTRDTSTSTVYMELSSLRSEDTAVYYCARGRTGMGAVDYWGQGTLVTVSS
VL: DVQMTQSPSSLSASVGDRVTITCRASQDVYSYLNWYQQKPGKAVKLLIYYTSRLQSGVPSRFSGSGSGTDYTLTISSLQPEDFATYYCQQYNIFPWTFGQGTKLEIK
modifications: v29452, v29456, v29460 VH (H1); v29453, v29454, v29455, v29456 VL (L2)
[1]
  Bmax (MFI): 20,096 MFI
  Curve Hill Slope (h): 1.1
  Kd: 1.28 nM
[2]
  NS-ELISA binding score (ratio of signal between antibody-treated and untreated), Heparin: 1.06
Insulin
  NS-ELISA binding score (ratio of signal between antibody-treated and untreated), Insulin: 1.05
